Test results taken from patent US20230220081A1 (Xencor, published 2023).

Target: T1, PD-1 on SEB-stimulated human T cells (human, UniProt Q15116 25-288)
T1 construct: whole, on cells; also called SEB-stimulated T cells
Assay: flow cytometry on SEB-stimulated human PBMCs, APC anti-human kappa MFI on CD3-FITC+ cells
Protocol: Binding of anti-PD-1 clone 1C11 to T cells was measured in an SEB-stimulated PBMC assay. Staphylococcal Enterotoxin B (SEB) is a superantigen that causes T cell activation and proliferation in a manner similar to that achieved by activation via the T cell receptor (TCR), including expression of checkpoint receptors such as PD-1. Human PBMCs were stimulated with […] for 3 days. Following stimulation, PBMCs were incubated with the indicated test articles at indicated concentrations at 4° C. for 30 min. PBMCs were stained with anti-CD3-FITC (UCHT1) and APC labeled antibody for human immunoglobulin κ light chain. The binding of the test articles to T cells as indicated by APC MFI on FITC+ cells is depicted in FIG. 17.

T1 sequence (Q15116 25-288): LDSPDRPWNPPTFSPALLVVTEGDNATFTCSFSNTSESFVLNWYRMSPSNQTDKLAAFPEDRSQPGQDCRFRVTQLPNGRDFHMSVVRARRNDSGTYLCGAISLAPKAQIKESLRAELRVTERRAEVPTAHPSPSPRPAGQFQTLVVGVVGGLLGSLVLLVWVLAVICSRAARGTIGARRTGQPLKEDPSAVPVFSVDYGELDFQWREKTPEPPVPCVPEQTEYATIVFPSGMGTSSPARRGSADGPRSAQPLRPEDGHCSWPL

binding result: binds
B1: XENP21575, chimeric anti-PD-1 antibody based on the variable regions of hybridoma clone 1C11 and human IgG1 with E233P/L234V/L235A/G236del/S267K substitutions … (antibody, V domains shown)
VH: QIQLVQSGPELKKPGETVKISCRASGYTFTHYGMNWVKQAPGKGLKWMGWINTYTGEPTYADDFKGRFAFSLETSASTAYLQINNLKNEDTATYFCARDYYGSSPYWGQGTTLTVSS
VL: DVLMTQTPLSLPVSLGDQASISCRSSQSIVHSNGNTYLEWYLQKPGQSPKLLIYKVSNRFSGVPDRFSGSGSGTDFTLKISRVEAEDLGVYYCFQGSHVPNTFGGGTKLEIKR
notes: Mouse hybridoma variable regions on human IgG1 with FcγR ablation substitutions (EU numbering); also called anti-PD-1 clone 1C11
